Measured values taken from the RNAGym collection of RNA variant scans (doi:10.1073/pnas.2313332121).
Fewer inactive variants are shown than the library holds.

B1: TPR 5TU (parent)
chain: GGAUCUUCUCGAUCUAACAAAAAAGACAAAUCUGCCACAAAGCUUGAGAGCAUCUUCGGAUGCAGAGGCGGCAGCCUUCGGUGGCGCGAUAGCGCCAACGUUCUCAACUAUGACACGCAAAACGCGUGCUCCGUUGAAUGGAGUUUAUCAUG

Variants of: B1
Assay: polymerase ribozyme fitness, log enrichment relative to wild type (log ratio); higher = more active; in vitro selection for triplet polymerase activity
Method in brief: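 Mutant libraries were PCR-built and transcribed for each subunit of a heterodimeric triplet polymerase ribozyme and selected for one round in triplicate at −7 °C, frozen, before gel excision of extended constructs and streptavidin-bead capture. Input and output libraries were Illumina-sequenced, keeping genotypes with ≥10 input reads and ≥1 read per output. Fitness is a logarithmic ratio of genotype to wild-type enrichment, in base 2, using inverse-variance-weighted replicate averages.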
With GGACCUUCUCGAUCUAACAAAAAAGACAAAUCUGCCACAAAACUUGAGCCUAUCUUCGGAUGCAGAGGCGGCAGCCUUGGGUGGCGCGAUUGCGCCAACGUUCUCAACUAUGACACGCAAGACGCGUGCUCCGUUGAAUGGAGUUUAUCAUG [U4C G42A A49C G50C C51U C79G A91U A121G] the “polymerase ribozyme fitness (log ratio)” value was ≤ -4.2. In the case of GGACCUUCUCGAUCUAACAAAAAAGACAAAUCUGGCACAAAGCUUGAGAGCAUCUUCGGAUGCAGAGGCGGCAGCCUUCGGUGGCGCGAUAGCGCUAACGUUCUCAACUAUGACACGCAAAACGCGUGCUCCGUUGAAUGGAGUUUAUCAUG [U4C C35G C96U], the “polymerase ribozyme fitness (log ratio)” value is reported as ≤ -4.2. In the case of GGACCUUCUCGAUCUAACAAAAAAGACAAAUCUGCUACAAAGCUUGAGGGCAUCUUCGGAUGCAGUGGCGGCAGCCUUCGGUAGGGCAAUAGCGCCAACGUUCUCAACUAUGAUACGCAAAACGCGUGCUCCGUUGAAUGGAGUUGAUCAUG [U4C C36U A49G A66U G83A C85G G88A C114U U146G], the “polymerase ribozyme fitness (log ratio)” value is reported as ≤ -4.2. For GGACCUUCUCGAUUAAACAAAAAAGACAAAUCUGCCACAACGCUUGAGAGCAUCUUCGGAUGCAGAGGCGGCAGCCUUCGGUGGCGCGAUAGAGUCAACGUUCUCAACUAUGACACGCAAAACGCGUGCUCCGUUGAAUGGAGUUUAUCAUG [U4C C14U U15A A41C C93A C95U], the “polymerase ribozyme fitness (log ratio)” value was ≤ -4.2. For GGACCUUCUUGAUCUAACACAAAAGACAUAUCUGCCACAAAGCUUGAGAGCCUCUUCGGAUGCAGAGGCGGCAGCCUUCGGUGGCGCGAUAGCGCCAACGUUCUCAACUAUGACACGCAAAACGCGUGCUCCGUUGACUUGAGUUUAUCAUG [U4C C10U A20C A29U A52C A138C G140U], the “polymerase ribozyme fitness (log ratio)” value was ≤ -4.2. With GGACCUUCUAGUUCUAACAAAAAAGACAAAUCUGCCACAAAGCUUGAGAGCAACUUCGGAUGCAGAGGCGGCAGCCUUCGGUGGCGCCAUAGCGCAAACGUUCUCAACUAUGACACGCAAAACGCGUGCUCCGUUGAAUGGAGUUUAUCAUG [U4C C10A A12U U53A G88C C96A] the “polymerase ribozyme fitness (log ratio)” value was ≤ -4.2. With GGACCUUCUCAAUCUAACAAAAAAGACAAAUCUGCCACAAAGCUUGAGAGCAUCUUCGGAUGCAGAGACGGAAGCCUUCGGUUGCGCGAUAGGGCCAACGUUCUCAACUAUGACACGCAAAACGCGUGCUCCGUUGAAUAGAGUUUACCAUG [U4C G11A G68A C72A G83U C93G G140A U148C] the “polymerase ribozyme fitness (log ratio)” value was ≤ -4.2. For GGACCUUCUCGAUCUAACAAAAAAGACAAAUCUGCCACAAAGCUUGAGAACAUCUUCGGAUGCAGAGGCGGCAGCCUUCGGUAGCGAGAUCACGCCAACGUUCUCAACUAUGACACGCAAAACGCGUGCUCCGUUGAAUGGAGUUAAUCAUG [U4C G50A G83A C87A A91C G92A U146A], the “polymerase ribozyme fitness (log ratio)” value was ≤ -4.2. For GGACCUUCUCGAUCUAACAAAAAAGACAAAUCUGCCACAAAGCUUGAGAGCAUCUUCGGAUGCAGAGGCGGCAGCCUUCGGUGGCGCGAUAGCCCCAACGUUCUCAACUAUGACAGGCAAAACGCGUGCUCCGUUGAAUGGAGUUUAUCAUG [U4C G94C C116G], the “polymerase ribozyme fitness (log ratio)” value was -0.818. With GGACCUUCUCGAUCUAACAAAAAAGACAAAUCUGCCACAAAGCUUGAGAGUAUCUUCGGAUGCAGAGGCGGCAGCUUUCGGUGGCGCGAUAGCACCAACGUUCUCAACUAUGACACGCAAAACGCGUGCUCCGUUGAAUGGAGUUUAUCAUG [U4C C51U C76U G94A] the “polymerase ribozyme fitness (log ratio)” value was -1.51. For GGACCUUCUCUAUCUAACAAAAAAGACAAAUCUGCCACAAACCUUGAAAGCAGCUUGGGAUGCAGAGGCGGCAGCCUUCGUUGGUGCGAUAGCGCCAACGUUCUCAACUAUGACACGCAAAACGCGUGCUCCGUUGAAUGGAGUUUAUCAUG [U4C G11U G42C G48A U53G C57G G81U C85U], the “polymerase ribozyme fitness (log ratio)” value was ≤ -4.2. In the case of GGACCUUCUCGAUCUAACAAAAAAGACAAAUCUGCCACAAAGCUUGAGAGCAUCUUCGGAUGCAGAGGCGGCAGCCUUCGGUGGGGCGAUAGCGCCAAUGUUCUCAACUAUGACACGCAAAACGGGUGCUCCGUUGAAUGGAGUUUAUCAUG [U4C C85G C99U C125G], the “polymerase ribozyme fitness (log ratio)” value is reported as -3.5. With GGACCUUCUCAAUCUAACAAAAAAGACAAAUCUGCCACAAAGCUUGAGAGCAUCUUAGGAUGCAGAGGCGGCAGCCUUCGGUGGCGCGAUAGCGCUAACGUUCUCAACUAUGACACGCAAAACACGUGCUCCGUUGAAUGGAGUUUAUCCUG [U4C G11A C57A C96U G124A A150C] the “polymerase ribozyme fitness (log ratio)” value was ≤ -4.2. In the case of GGACCUUCUCGAUCUAACAAAAAAGACAAAUCUGCCACAAAGCUUGAGAGCAUCUUCGGAUGCAGAGGCGGCAGCCUUCGGUGGCGCGAUAGCGCCAACGUUAUCAACUAUGACACGCAAAACGCGUGCUCCGUUGAACGGAGUUUAUCAUG [U4C C103A U139C], the “polymerase ribozyme fitness (log ratio)” value is reported as -3.94. For GGACCUUCUCGAUCUAAGAAAAAAGACAAAUCUGCCACAAAGCUUGAGAGCGUUUUCGGAUGCAGAGGCAGCAGCCUUCGGUGGCGCGAUCGAGCCAACGUUCUCAACUAUGACACGCAAAACGCGUUCUCCCUUGAAUGGAGUUUAUCACG [U4C C18G A52G C54U G70A A91C C93A G128U G133C U151C], the “polymerase ribozyme fitness (log ratio)” value was ≤ -4.2. In the case of GGACCUUCUCGAUCUAACAAAAAAGACAAAUCUGCCACAAAGCUUGAUCGCAUCUUCGGAUGCAGAGACGGCAGCCUUGGGUGGCGCGAUAGCGCCAACGUUCUAAACUAUGACACGCAAAACGCGUGCUCCGUUGAAUGGAGUUUAUCAUG [U4C G48U A49C G68A C79G C105A], the “polymerase ribozyme fitness (log ratio)” value is reported as ≤ -4.2. In the case of GGACCUUCUCGAUCUAACAAAAAAGACAAAUCUGCCACAAAGCUUGAGAGCAUCUUUGGAUGCAGCGGCGGCAGCCUUCGGUGGCGUGAUAGCGCCAACGUUCUCAACUAUGACACGCAAAACGCGUGCUCCGUUGAAUGGAGUUUAUCAUG [U4C C57U A66C C87U], the “polymerase ribozyme fitness (log ratio)” value is reported as ≤ -4.2. For GGACCUUCUGGAUCUAACAAAAAAGACCAAUCUGCCACAAAGCUUGAGCGCAUCUUCGGAUGCAGAGGCGGCAGCCUUCGGUGGCACGAUAGCGCCAAGGUUCGCAACUAUGACACGCAAAACGCGUGCUCCGUUGAAUGGAGUUUAUCAUG [U4C C10G A28C A49C G86A C99G U104G], the “polymerase ribozyme fitness (log ratio)” value was ≤ -4.2. With GGACCUUCUCGAUCUAACAAAAAAGACAAAUCUGCCACAAAGCUUGAGAGCAUCUUCGGAUGCAGAGGCGGCAGCCUUCGGUGGCGCGAUAGCGCGAACGUUCUCAACUAUGACACGCAAAACGCGUGCUCCGUUGAAUGGAGUUUAUCAUG [U4C C96G] the “polymerase ribozyme fitness (log ratio)” value was 0.0289.
